B1: TRAF3IP2 (parent)
chain: APWNYHYHCPGSPDHQVPYGHDYP

Variants of: B1
Test: protein stability index of a GFP-peptide fusion (GPS, HEK-293T) (PSI 1-6); higher = more stable
Details: c terminus: a fixed tail appended
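Further: lentivirally expressed fusions sorted by FACS into six bins by GFP to DsRed ratio, PSI derived from sequencing read proportions per bin multiplied by bin number.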

Variant | protein stability index
APWNYHYHCPPSPDHQVPYGHDYP [G11P] | 1.91
APWNYHYHCPSSPDHQVPYGHDYP [G11S] | 2.12
APWNYHYHCPWSPDHQVPYGHDYP [G11W] | 2.18
APWNYHYHCPTSPDHQVPYGHDYP [G11T] | 2.18
APWNYHYHCPQSPDHQVPYGHDYP [G11Q] | 1.63
APWNYHYHCPVSPDHQVPYGHDYP [G11V] | 2.08
APWNYHYHCPRSPDHQVPYGHDYP [G11R] | 2.04
APWNYHYHCPYSPDHQVPYGHDYP [G11Y] | 1.37
APWNYHYHCPGSPDHQVGYGHDYP [P18G] | 1.92
APWNYHYHCPGSPDHQVVYGHDYP [P18V] | 2.05
APWNYHYHCPGSPDHQVIYGHDYP [P18I] | 1.93
APWNYHYHCPGSPDHQVCYGHDYP [P18C] | 2.97
APWNYHYHCPGSPDHQVNYGHDYP [P18N] | 2.5
APWNYHYHCPGSPDHQVWYGHDYP [P18W] | 1.71
APWNYHYHCPGSPDHQVYYGHDYP [P18Y] | 2.16
APWNYHYHCPGSPDHQVEYGHDYP [P18E] | 2.54
APWNYHYHCPGSPDHQVRYGHDYP [P18R] | 2
APWNYHYHCPGSPDHQVKYGHDYP [P18K] | 3.59
APWNYHYHCPGSPDHQVTYGHDYP [P18T] | 2.37
APWNYHYHCPGSPDHQVDYGHDYP [P18D] | 2.44
APWNYHYHCPGSPDHQVMYGHDYP [P18M] | 2.56
APWNYHYHCPGSPDHQVAYGHDYP [P18A] | 3.19
APWNYHYHCPGSPDHQVSYGHDYP [P18S] | 1.67
APWNYHYHCPGSPDHQVQYGHDYP [P18Q] | 2.54

Variant | protein stability index
APWNYHYHCPGSPDHQVLYGHDYP [P18L] | 2.21
APWNYHYHCPGSPDHQVHYGHDYP [P18H] | 2.17
APWNYHYHCPGSPDHQVFYGHDYP [P18F] | 2.23
APWNYHYHCPGSPDHQVPYGMDYP [H21M] | 1.67
APWNYHYHCPGSPDHQVPYGGDYP [H21G] | 1.91
APWNYHYHCPGSPDHQVPYGDDYP [H21D] | 2.79
APWNYHYHCPGSPDHQVPYGNDYP [H21N] | 2.39
APWNYHYHCPGSPDHQVPYGIDYP [H21I] | 1.74
APWNYHYHCPGSPDHQVPYGKDYP [H21K] | 2.48
APWNYHYHCPGSPDHQVPYGCDYP [H21C] | 1.6
APWNYHYHCPGSPDHQVPYGFDYP [H21F] | 1.56
APWNYHYHCPGSPDHQVPYGLDYP [H21L] | 1.52
APWNYHYHCPGSPDHQVPYGADYP [H21A] | 2.22
APWNYHYHCPGSPDHQVPYGEDYP [H21E] | 2.55
APWNYHYHCPGSADHQVPYGHDYP [P13A] | 3.02
APWNYHYHCPGSYDHQVPYGHDYP [P13Y] | 1.63
APWNYHYHCPGSCDHQVPYGHDYP [P13C] | 1.94
APWNYHYHCPGSIDHQVPYGHDYP [P13I] | 1.87
APWNYHYHCPGSLDHQVPYGHDYP [P13L] | 2.16
APWNYHYHCPGSWDHQVPYGHDYP [P13W] | 1.67
APWNYHYHCPGSHDHQVPYGHDYP [P13H] | 1.79
APWNYHYHCPGSSDHQVPYGHDYP [P13S] | 2.14
APWNYHYHCPGSNDHQVPYGHDYP [P13N] | 1.83
APWNYHYHCPGSRDHQVPYGHDYP [P13R] | 2.33

Variant | protein stability index
APWNYHYHCPGSKDHQVPYGHDYP [P13K] | 1.84
APWNYHYHCPGSMDHQVPYGHDYP [P13M] | 2.12
APWNYHYHCPGSQDHQVPYGHDYP [P13Q] | 2.5
APWNYHYHCPGSFDHQVPYGHDYP [P13F] | 2.78
APWNYHYHCPGSEDHQVPYGHDYP [P13E] | 3.05
APWNYHYHCPGSGDHQVPYGHDYP [P13G] | 2.05
APWNYHYHCPGSTDHQVPYGHDYP [P13T] | 2.24
APWNYHYHCPGSDDHQVPYGHDYP [P13D] | 2.4
APWNYHYHCPGSPDHQCPYGHDYP [V17C] | 2.45
APWNYHYHCPGSPDHQIPYGHDYP [V17I] | 2.15
APWNYHYHCPGSPDHQQPYGHDYP [V17Q] | 2.61
APWNYHYHCPGSPDHQKPYGHDYP [V17K] | 2.53
APWNYHYHCPGSPDHQNPYGHDYP [V17N] | 2.23
APWNYHYHCPGSPDHQRPYGHDYP [V17R] | 2.4
APWNYHYHCPGSPDHQSPYGHDYP [V17S] | 2.31
APWNYHYHCPGSPDHQGPYGHDYP [V17G] | 2.68
APWNYHYHCPGSPDHQHPYGHDYP [V17H] | 2.71
APWNYHYHCPGSPDHQYPYGHDYP [V17Y] | 1.81
APWNYHYHCPGSPDHQLPYGHDYP [V17L] | 2.81
APWNYHYHCPGSPDHQEPYGHDYP [V17E] | 2.95
APWNYHYHCPGSPDHQDPYGHDYP [V17D] | 2.62
APWNYHYHCPGSPDHQMPYGHDYP [V17M] | 1.88
APWNYHYHCPGSPDHQAPYGHDYP [V17A] | 2.06
APWNYHYHCPGSPDHQTPYGHDYP [V17T] | 2.39

Variant | protein stability index
APWNYHYHCPGSPDHQPPYGHDYP [V17P] | 2.6
APWNYHYHCPGSPDHQFPYGHDYP [V17F] | 1.73
APWNYHYHCPGSPDHQWPYGHDYP [V17W] | 2.08
APWNYHYHCPGSPDHQVPWGHDYP [Y19W] | 1.82
APWNYHYHCPGSPDHQVPQGHDYP [Y19Q] | 3.09
APWNYHYHCPGSPDHQVPSGHDYP [Y19S] | 2.44
APWNYHYHCPGSPDHQVPAGHDYP [Y19A] | 2.47
APWNYHYHCPGSPDHQVPCGHDYP [Y19C] | 1.91
APWNYHYHCPGSPDHQVPGGHDYP [Y19G] | 2.41
APWNYHYHCPGSPDHQVPKGHDYP [Y19K] | 2.51
APWNYHYHCPGSPDHQVPLGHDYP [Y19L] | 2.46
APWNYHYHCPGSPDHQVPIGHDYP [Y19I] | 2.66
APWNYHYHCPGSPDHQVPEGHDYP [Y19E] | 2.8
APWNYHYHCPGSPDHQVPTGHDYP [Y19T] | 2.85
APWNYHYHCPGSPDHQVPVGHDYP [Y19V] | 2.7
APWNYHYHCPGSPDHQVPPGHDYP [Y19P] | 2.51
APWNYHYHCPGSPDHQVPHGHDYP [Y19H] | 2.85
APWNYHYHCPGSPDHQVPNGHDYP [Y19N] | 2.48
APWNYHYHCPGSPDHQVPMGHDYP [Y19M] | 2.23
APWNYHYHCPGSPDHQVPFGHDYP [Y19F] | 1.87
APWNYHYHCPGSPDHQVPDGHDYP [Y19D] | 2.75
APWNYHYHCPGSPDHQVPRGHDYP [Y19R] | 1.99

Source: the supplement of paper PMC10567573
